We go through 1 molecule from patent publication US20210347873A1 (SHANGHAI PHARMAEXPLORER, published 2021).

In test [1] the target is T1, human APRIL protein (human, UniProt O75888 105-250, limits assumed).
T1 construct: Bought protein; also called recombinant APRIL protein
T1 sequence (looked up): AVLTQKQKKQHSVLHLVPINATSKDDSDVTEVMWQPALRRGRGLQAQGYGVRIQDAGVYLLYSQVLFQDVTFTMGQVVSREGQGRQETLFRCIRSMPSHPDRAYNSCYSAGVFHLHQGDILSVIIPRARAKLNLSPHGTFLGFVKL
Briefly: ELISA, coated APRIL. As to the method:
To test whether the BLyS antibody cross-reacted with human APRIL protein, APRIL protein (purchased from R & D Systems) was first diluted to a final concentration of 1.0 μg/mL with PBS, and then 50 μL of which per well was aliquoted into a 96-well ELISA plate, and the plate was subsequently sealed with plastic film and incubated at 4° C. overnight. On the next day the plate was rinsed four times with the plate washing buffer [PBS buffer containing 0.0500 (v/v) Tween20] and a blocking solution [PBS buffer containing 0.05 (v/v) Tween20 and 1 (w/w) BSA] was added, then the protein was blocked at 37° C. for 2 hours. The blocking solution was removed and 100 μL per well of the lead antibodies prepared in Embodiment 1 and 2 were added in. After incubation for 1 hour at 37° C., the plate was rinsed four times with the plate washing buffer [PBS buffer containing 0.05 (v/v) Tween20]. HRP-labeled (horseradish peroxidase) secondary antibody (purchased from Sigma) was added in and incubated at 37° C. for 1 hour. The plate was then rinsed four times with the plate washing buffer [PBS buffer containing 0.050 (v/v) Tween20]. […] A₄₅₀ₙₘ values were read via an ELISA plate reader (SpectraMax M5e purchased from Molecular Devices) and the results were shown in FIGS. 6A-6B and Table 11. […]
For orientation: In an ELISA, binding on a coated surface is turned into a signal by an enzyme label.

The target in test [2] is T1, human APRIL protein. Briefly: ELISA, coated APRIL; antibody 13.3 nM. The gist of the method: (§1)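 OD450 values reflect BLyS antibody binding to immobilised human APRIL (1.0 μg/mL coat), detected via HRP-conjugated secondary and TMB with acid stop.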
Test [3] addresses T1, human APRIL protein. Briefly: ELISA, coated APRIL; antibody 2.67 nM. In a few lines:
as §1

The target of test [4] is T1, human APRIL protein. Briefly: ELISA, coated APRIL; antibody 66.7 nM. The gist of the method:
as §1

Test [5] has as its target T1, human APRIL protein. Briefly: ELISA, coated APRIL; antibody 0.107 nM. The gist of the method:
as §1

Test [6] has as its target T1, human APRIL protein. Briefly: ELISA, coated APRIL; antibody 0.534 nM. In a few lines:
as §1

The target in test [7] is T1, human APRIL protein. Briefly: ELISA, coated APRIL; antibody 0.0213 nM. In a few lines: as §1
Test [8] deals with T1, human APRIL protein. Briefly: ELISA, coated APRIL; antibody 0.00427 nM. In a few lines:
as §1

Test [9] deals with T1, human APRIL protein. Briefly: ELISA, coated APRIL; antibody 0 nM (blank). In a few lines:
as §1

B1: 67A2E1D10 (antibody, V domains shown)
VH: EVQLQQSGAELVKPGASVKLSCTASGFNIKNYYMHWVKQRTEEGLEWIGRIDPEDGETKYAPKFQAKATITADTSSNTAYLQLSSLTSEDTAVYFCARKGYYGNYGAWFAYWGQGTLVTVSA
VL: DIQMTQSPASLSVSVGETVTITCRASEDLYSNLAWYQQKQGKSPQLLVYAATFLADGVPSRFSGSGSGTQYSLKINSLQSEDFGNYYCQHFWGTPPTFGGGTKLEIK
notes: Mouse hybridoma antibody purified on Protein G
Take B1: the binding result in the test with human APRIL protein [1] is reported as “no binding (tested: 66.7 nM)”. Besides, the OD450 nm is 0.0898 with human APRIL protein [2]; 0.0673 with human APRIL protein [3]; 0.264 with human APRIL protein [4]; 0.0588 in the test with human APRIL protein [5]; 0.058 with human APRIL protein [6]; 0.0563 in the test with human APRIL protein [7]. The OD450 nm in the test with human APRIL protein [8] was found to be 0.0553; in the test with human APRIL protein [9], 0.053.
